Results on 1 protein are retold here after publication PMC12232663, “Molecular contacts in self-assembling clusters of membrane proteins” (Proceedings of the National Academy of Sciences of the …, 2025).

The series deals with the molecule itself. The series is described as follows: cryo-EM structure; single-particle reconstruction of purified channel reconstituted into POPC vesicles (protein:lipid 1:20, 10 mM Tris pH 8.0, 150 mM KCl); C4-symmetric map; monomers to tetramer.

Broadly, the stoichiometry N is the number of molecules, sites or subunits per partner or assembly.

B1: Human HCN1 with a C-terminal truncation (residues 636 to 865) (natural protein, UniProt O60741 1-890, looked up)
chain: MEGGGKPNSSSNSRDDGNSVFPAKASATGAGPAAAEKRLGTPPGGGGAGAKEHGNSVCFKVDGGGGGGGGGGGGEEPAGGFEDAEGPRRQYGFMQRQFTSMLQPGVNKFSLRMFGSQKAVEKEQERVKTAGFWIIHPYSDFRFYWDLIMLIMMVGNLVIIPVGITFFTEQTTTPWIIFNVASDTVFLLDLIMNFRTGTVNEDSSEIILDPKVIKMNYLKSWFVVDFISSIPVDYIFLIVEKGMDSEVYKTARALRIVRFTKILSLLRLLRLSRLIRYIHQWEEIFHMTYDLASAVVRIFNLIGMMLLLCHWDGCLQFLVPLLQDFPPDCWVSLNEMVNDSWGKQYSYALFKAMSHMLCIGYGAQAPVSMSDLWITMLSMIVGATCYAMFVGHATALIQSLDSSRRQYQEKYKQVEQYMSFHKLPADMRQKIHDYYEHRYQGKIFDEENILNELNDPLREEIVNFNCRKLVATMPLFANADPNFVTAMLSKLRFEVFQPGDYIIREGAVGKKMYFIQHGVAGVITKSSKEMKLTDGSYFGEICLLTKGRRTASVRADTYCRLYSLSVDNFNEVLEEYPMMRRAFETVAIDRLDRIGKKNSILLQKFQKDLNTGVFNNQENEILKQIVKHDREMVQAALPRESSSVLNTDPDAEKPRFASNL
notes: source: HEK293S GnTI- cells (BacMam), purified (GFP-nanobody resin, SEC in LMNG:CHS), reconstituted into POPC vesicles
As for B1, the “stoichiometry N” value was 4.
